Source: US5717058A, “Peptide inhibitors of tax-dependent transcription” (priority 1994, dated 1998)
“Also recorded” adds a separate entry of the source. No end group written: not given here.

Tests used:
[1] = solubility in aqueous solution; type: physicochemical
Tax-CREB interaction = biological target: T1, Tax-CREB interaction (Homo sapiens, UniProt P16220); assay: EMSA, inhibition of Tax-mediated enhancement of CREB binding to HTLV-I 21 bp repeat DNA; conditions: for fold enhancement: 200 nM Tax
T1 construct: made in house
T1 sequence (P16220 whole entry): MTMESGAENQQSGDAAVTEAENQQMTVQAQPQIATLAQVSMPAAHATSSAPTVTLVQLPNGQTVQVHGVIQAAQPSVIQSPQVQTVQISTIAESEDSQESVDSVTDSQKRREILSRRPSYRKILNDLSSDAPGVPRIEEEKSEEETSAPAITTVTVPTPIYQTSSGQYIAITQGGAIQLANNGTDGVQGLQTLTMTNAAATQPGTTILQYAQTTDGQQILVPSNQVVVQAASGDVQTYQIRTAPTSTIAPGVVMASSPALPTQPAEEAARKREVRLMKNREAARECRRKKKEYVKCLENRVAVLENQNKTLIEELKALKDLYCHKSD
Description: The HTLV-I transactivator Tax enhances the binding of CREB to the 21 bp repeat sequences contained in the HTLV-I LTR (Zhao and Giam (1992) PNAS 89:7070-7074; Franklin et al. 1993 J. Biol. Chem. 268:21225-21231; Wagner and Green, 1993 Science 262:395-399). We are testing whether peptides representing portions of the primary sequence of Tax can disrupt the Tax-CREB interaction as measured by EMSA.
Purified recombinant CREB was isolated as previously published (Franklin et al. 1993 J. Biol. Chem. 268:21225-21231) and active DNA-binding CREB was purified by heparin-agarose chromatography. Purified recombinant TaxH6 (contains a six-histidine purification tag at the C-terminus of Tax) was isolated an purified as previously published (Zhao and Giam (1991) PNAS 88:12445-11449; Franklin et al. 1993 J. Biol. Chem. 268:21225-21231). Peptides were synthesized and purified as described in Example 1. The third HTLV-I 21 bp repeat (Seq. ID. No. 43) was cloned into the Bgl II site of pUC19. The 70 bp DNA probe fragment was excised with Kpn I and Hind III, phosphatased and gel purified.
EMSA reactions contained 0.1-2.0 nM [^32 P]end-labeled double stranded site 3 probe, 5-50 ng poly (dI-dC) carrier DNA, 1-5 nM purified recombinant CREB, 100-200 nM purified recombinant TaxH6, 15 mM HEPES pH 8.0, 1.5% DMSO, 25 mM Tris-HCl pH 7.9, 6.25 mM MgCl2, 0.5 mM EDTA, 0.5 mM DTT, 60-120 mM KCl, and 10% (v/v) glycerol, and candidate peptide inhibitors in a 20 μl reaction volume. CREB was incubated with the peptides or mock buffer (5% DMSO 50 mM HEPES pH 8.0) for 2-5 min. at room temp. then TaxH6 and DNA mixture were added. The complete reaction mixture was incubated 10-20 min. further at room temp. then analyzed on 5% non-denaturing polyacrylamide gels (49:1, acrylamide:N,N-methylene bisacrylamide). The electrophoresis buffer contained 0.04M Tris, 0.306M glycine, pH 8.5, and 0.1% Nonidet P-40. Gels were dried were autoradiographed. Relative amounts of protein-DNA complex were quantitated using Phosphor Image Analysis.
The primary amino acid sequence of Tax was divided into 29 peptides 20 amino adds in length with an overlap of eight amino acids (see Detailed Description of the Invention and Example 1). The number of the first amino acid in each peptide corresponds to its position in the primary sequence of Tax. Six peptides were tested by EMSA for inhibition of Tax-mediated enhancement. The percentage of radiolabeled DNA probe shifted into protein-DNA complexes in each reaction was quantitated by phosphorimage analysis. Fold enhancement was calculated by dividing the amount of probe shifted in each reaction by the amount of probe shifted in reactions containing CREB, DNA and mock peptide buffer (Table 1). Reactions in Table 1 contained 0.5 nM radiolabeled DNA probe, 10 ng poly dIdC, 1.25% v/v DMSO, 12.5 mM HEPES pH 8.0, 25 mM Tris pH 7.9, 6.25 mM MgCl2, 75 mM KCl, 0.5 mM EDTA, 0.5 mM DTT, 10% v/v glycerol, and CREB, Tax and peptide as indicated in a final volume of 20 μL.
Reactions in Table 2 contained 0.5 nM radiolabeled DNA probe, 10 ng poly dIdC, 1.75% v/v DMSO, 17.5 mM HEPES pH 8.0, 25 mM Tris pH 7.9, 6.25 mM MgCl2, 75 mM KCl, 0.5 mM EDTA, 0.5 mM DTT, 10% v/v glycerol, and CREB, Tax and peptide as indicated in a final volume of 20 μL. Protein-DNA complexes were quantitated by phosphorimage analysis. Fold enhancement was calculated by dividing the amount of complex formed in each reaction by the amount of complex formed in a reaction containing CREB, DNA, mock Tax buffer and mock peptide buffer.
Reactions in Table 3 contained 0.5 nM radiolabeled DNA probe, 10 ng poly dIdC, 1.75% v/v DMSO, 17.5 mM HEPES pH 8.0, 25 mM Tris pH 7.9, 6.25 mM MgCl2, 75 mM KCl, 0.5 mM EDTA, 0.5 mM DTT, 10% v/v glycerol, and CREB, Tax and peptide as indicated in a final volume of 20 μL. Amount of complex was quantitated by densitometry (PDI). […]

CC(C)C[C@H](NC(=O)[C@H](CC(C)C)NC(=O)[C@H](Cc1c[nH]cn1)NC(=O)[C@H](CC(C)C)NC(=O)[C@H](CO)NC(=O)[C@H](Cc1c[nH]cn1)NC(=O)[C@H](Cc1ccccc1)NC(=O)[C@H](CO)NC(=O)CNC(=O)CNC(=O)[C@H](CCC(=O)O)NC(=O)[C@@H](N)CCC(=O)O)C(=O)N[C@@H](Cc1ccccc1)C(=O)N[C@@H](CCC(=O)O)C(N)=O [Seq ID No. 55, EEGGSFHSLHLLFE]
solubility in aqueous solution, in words [1]: more soluble

CC(C)C[C@H](NC(=O)[C@H](CC(C)C)NC(=O)[C@H](Cc1c[nH]cn1)NC(=O)[C@H](CC(C)C)NC(=O)[C@H](CO)NC(=O)[C@H](Cc1c[nH]cn1)NC(=O)[C@H](Cc1ccccc1)NC(=O)[C@H](CO)NC(=O)CNC(=O)CNC(=O)[C@H](CCC(=O)O)NC(=O)[C@@H](N)CCC(=O)O)C(=O)N[C@@H](Cc1ccccc1)C(=O)N[C@@H](CCC(=O)O)C(=O)N[C@@H](CCC(=O)O)C(=O)N[C@@H](CCC(=O)O)C(N)=O [Seq ID No. 56, EEGGSFHSLHLLFEEE]
solubility in aqueous solution, in words [1]: more soluble

TX313: 20 amino acid Tax peptide beginning at amino acid 313, overlaps TX301 by 8 amino acids
effect on Tax-mediated enhancement of CREB binding to DNA (complex formation), in words (Tax-CREB interaction; EMSA, CREB + Tax + peptide): slight enhancement of complex formation at some concentrations | fold enhancement (Tax-CREB interaction; Table 4, TX313 35 μM, 3.4 nM CREB, Tax without peptide 4.48, densitometry): 5.16 fold | fold enhancement (Tax-CREB interaction; Table 4, TX313 70 μM, 3.4 nM CREB, Tax without peptide 4.48, densitometry): 5.60 fold | fold enhancement (Tax-CREB interaction; Table 4, TX313 140 μM, 3.4 nM CREB, Tax without peptide 4.48, densitometry): 4.49 fold | dose dependence of the effect on Tax-mediated enhancement, in words (Tax-CREB interaction; titration in EMSA): did not have a dose dependent affect; also recorded: no dose dependence

CC[C@H](C)[C@H](NC(=O)[C@@H]1CCCN1C(=O)[C@@H](NC(=O)[C@H](CC(N)=O)NC(=O)[C@@H](NC(=O)[C@H](Cc1ccc(O)cc1)NC(=O)[C@H](CCC(=O)O)NC(=O)[C@H](CCC(=O)O)NC(=O)[C@H](Cc1ccccc1)NC(=O)[C@H](CC(C)C)NC(=O)[C@H](CC(C)C)NC(=O)[C@H](Cc1c[nH]cn1)NC(=O)[C@H](CC(C)C)NC(=O)[C@H](CO)NC(=O)[C@H](Cc1c[nH]cn1)NC(=O)[C@H](Cc1ccccc1)NC(=O)[C@@H](N)CO)[C@@H](C)O)[C@@H](C)CC)C(=O)N[C@@H](CO)C(=O)N[C@@H](CC(C)C)C(=O)N[C@@H](CC(C)C)C(N)=O [TX301]
solubility in aqueous solution, in words [1]: limited solubility in aqueous solutions; also recorded: sparingly soluble

FLSEFLHSHL [SCM2, reference compound]
fold enhancement (Tax-CREB interaction; Table 8, SCM2 0.75 μM, 2.3 nM CREB, Tax without peptide 17.0): 17.9 fold | fold enhancement (Tax-CREB interaction; Table 8, SCM2 1.50 μM, 2.3 nM CREB, Tax without peptide 17.0): 17.8 fold | fold enhancement (Tax-CREB interaction; Table 8, SCM2 7.50 μM, 2.3 nM CREB, Tax without peptide 17.0): 14.5 fold | fold enhancement (Tax-CREB interaction; Table 8, SCM2 15.00 μM, 2.3 nM CREB, Tax without peptide 17.0): 9.7 fold | fold enhancement (Tax-CREB interaction; Table 8, SCM2 75.00 μM, 2.3 nM CREB, Tax without peptide 17.0): 3.3 fold | fold enhancement (Tax-CREB interaction; Table 8, SCM2 150.00 μM, 2.3 nM CREB, Tax without peptide 17.0): 1.1 fold

HSLHLLFEEY-NH2 [TX303-313, HSLHLLFEEY]
solubility in aqueous solution, in words [1]: sparingly soluble

CC(C)C[C@H](NC(=O)[C@H](CC(C)C)NC(=O)[C@H](Cc1c[nH]cn1)NC(=O)[C@H](CC(C)C)NC(=O)[C@H](CO)NC(=O)[C@H](Cc1c[nH]cn1)NC(=O)[C@H](Cc1ccccc1)NC(=O)[C@@H](N)CO)C(=O)N[C@@H](Cc1ccccc1)C(=O)N[C@@H](CCC(=O)O)C(N)=O [TX301-310, SFHSLHLLFE]
solubility in aqueous solution, in words [1]: sparingly soluble

CC(C)C[C@H](NC(=O)[C@H](CC(C)C)NC(=O)[C@H](Cc1c[nH]cn1)NC(=O)[C@H](CC(C)C)NC(=O)[C@H](CO)NC(=O)[C@H](Cc1c[nH]cn1)NC(=O)[C@H](Cc1ccccc1)NC(=O)[C@@H](N)CO)C(=O)N[C@@H](Cc1ccccc1)C(=O)N[C@@H](CCC(=O)O)C(=O)N[C@@H](CCC(=O)O)C(=O)N[C@@H](CCC(=O)O)C(N)=O [Seq ID No. 54, SFHSLHLLFEEE]
solubility in aqueous solution, in words [1]: more soluble
